Biological target: human NPY2 receptor (HEK293/hNPY2R cells) (human) (UniProt P49146)
Test: cell-based or functional assay

Chain of human NPY2 receptor (HEK293/hNPY2R cells) (human) (P49146 whole entry): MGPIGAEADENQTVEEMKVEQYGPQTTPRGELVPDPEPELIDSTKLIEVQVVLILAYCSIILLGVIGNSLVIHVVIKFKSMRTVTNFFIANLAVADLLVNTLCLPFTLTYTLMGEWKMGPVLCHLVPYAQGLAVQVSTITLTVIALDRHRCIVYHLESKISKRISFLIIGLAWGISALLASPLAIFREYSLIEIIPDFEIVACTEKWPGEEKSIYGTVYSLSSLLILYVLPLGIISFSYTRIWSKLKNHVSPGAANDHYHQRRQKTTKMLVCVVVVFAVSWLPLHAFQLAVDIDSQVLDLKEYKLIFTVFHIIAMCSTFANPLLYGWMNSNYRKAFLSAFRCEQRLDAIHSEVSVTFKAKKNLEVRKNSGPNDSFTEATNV
Chain of PYY(3-36) wild-type (peptide; modification not given) (chain, as listed by the source): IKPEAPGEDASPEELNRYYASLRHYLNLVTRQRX

EC50 [nM], cAMP assay (inhibition of Forskolin stimulated cAMP accumulation in HEK293/hNPY2R cells), day 1: 0.09 nM
EC50 [nM], cAMP assay (inhibition of Forskolin stimulated cAMP accumulation in HEK293/hNPY2R cells), day 2: 0.1 nM
Substance: PYY(3-36) wild-type (peptide; modification not given)

Source: patent US20210069338A1
